Results: patent US20150071923A1 (published 2015)
Read-outs that look alike come from different tables or passages of the source.

Columns and labels:
[1] = target: T1, His-tagged soluble extracellular domain of EGFR (sEGFR-H6; Sino Biologics, Cat #10001-H08H) (human, UniProt P00533 25-645); assay: pH-sensitive ELISA on coated sEGFR-H6
T1 construct: Bought protein; also called EGFR sECD; soluble extracellular domain of EGF receptor

[2] = target: T1, His-tagged soluble extracellular domain …; assay: ELISA on coated sEGFR-H6; pH 6.5, 16.7 mM lactic acid, 25% human serum
[3] = target: T1, His-tagged soluble extracellular domain …; assay: ELISA on coated sEGFR-H6; pH 6.0, 16.7 mM lactic acid, 25% human serum
[4] = target: T1, His-tagged soluble extracellular domain …; assay: ELISA on coated sEGFR-H6; pH 7.4, 1 mM lactic acid, 25% human serum
[5] = target: human epidermal growth factor receptor (EGFR) on cells and tissues (human, UniProt P00533 25-1210); assay: cell-based or functional assay
[6] = target: T1, His-tagged soluble extracellular domain …; assay: ELISA on coated sEGFR-H6; pH 7.4, 1 mM lactic acid, 25% human serum; remark: listed apart in the source
[7] = target: T1, His-tagged soluble extracellular domain …; assay: ELISA on coated sEGFR-H6; pH 6.5, 16.7 mM lactic acid, 25% human serum; remark: listed apart in the source
[8] = target: T1, His-tagged soluble extracellular domain …; assay: pH-sensitive ELISA on coated sEGFR-H6; remark: listed apart in the source
[9] = target: T1, His-tagged soluble extracellular domain …; assay: pH-sensitive ELISA, transfected supernatant adjusted to 2 ng/mL
[10] = target: T1, His-tagged soluble extracellular domain …; assay: ELISA on coated sEGFR-H6; pH 6.0, 16.7 mM lactic acid, 25% human serum; remark: listed apart in the source
[11] = target: T1, His-tagged soluble extracellular domain …; assay: pH-sensitive ELISA, transfected supernatant adjusted to 1 ng/mL
[12] = target: T1, His-tagged soluble extracellular domain …; assay: pH-sensitive ELISA, transfected supernatant adjusted to 4 ng/mL
[13] = target: T1, His-tagged soluble extracellular domain …; assay: ELISA on coated sEGFR-H6; pH 6.0, 16.7 mM lactic acid, 25% human serum; remark: listed apart in the source
[14] = target: T1, His-tagged soluble extracellular domain …; assay: pH-sensitive ELISA on coated sEGFR-H6; remark: listed apart in the source
[15] = target: T1, His-tagged soluble extracellular domain …; assay: ELISA on coated sEGFR-H6; pH 6.5, 16.7 mM lactic acid, 25% human serum; remark: listed apart in the source
[16] = target: T1, His-tagged soluble extracellular domain …; assay: ELISA on coated sEGFR-H6; pH 7.4, 1 mM lactic acid, 25% human serum; remark: listed apart in the source

| Binder | D (maximum) of 4-parameter fit [6] [OD450] | EC50 [6] [ng/mL] | D (maximum) of 4-parameter fit [7] [OD450] | EC50 [7] [ng/mL] | ratio of binding activity pH 6.0/7.4 (inverse EC50) [8] | ratio of binding activity pH 6.5/7.4 (inverse EC50) [8] | D (maximum) of 4-parameter fit [10] [OD450] | EC50 [10] [ng/mL] | D (maximum) of 4-parameter fit [13] [OD450] | EC50 [13] [ng/mL] | ratio of binding activity pH 6.0/7.4 (inverse EC50) [14] | ratio of binding activity pH 6.5/7.4 (inverse EC50) [14] | D (maximum) of 4-parameter fit [15] [OD450] | EC50 [15] [ng/mL] | D (maximum) of 4-parameter fit [16] [OD450] | EC50 [16] [ng/mL] | further results |
| --- | --- | --- | --- | --- | --- | --- | --- | --- | --- | --- | --- | --- | --- | --- | --- | --- | --- |
| flag-tagged humanized T030F/Y104D/Q111P mutant anti-EGFR antibody (FDP-h3) (antibody, human IgG1, kappa, V domains shown, also called FDP-h03) VH: EVQLVQSGAEVKKPGATVKISCKVSGFSLFNYGVHWVRQATGQGLEWMGVIWSGGNTDYNTPFTSRFTISRDDSKNTAYLQMNSLKTEDTAVYYCARALTYYDDEFAYWGPGTLVTVSS VL: AIQLTQSPSSLSASVGDRVTITCRASQSIGTNIHWYLQKPGQSPQLLIYYASESISGIPDRFSGSGSGTDFTLTISRLEPEDFAVYYCQQNNNWPTTFGQGTKVEIKR | – | – | – | – | – | – | – | – | – | – | – | – | – | – | – | – | ratio of binding activity pH 6.0/7.4 (inverse EC50) [1]: 7.53; ratio of binding activity pH 6.5/7.4 (inverse EC50) [1]: 6.69; D (maximum) of 4-parameter fit [2]: 3.76 OD450; EC50 [2]: 4.87 ng/mL; D (maximum) of 4-parameter fit [3]: 3.79 OD450; EC50 [3]: 4.33 ng/mL; D (maximum) of 4-parameter fit [4]: 3.65 OD450; EC50 [4]: 32.6 ng/mL |
| huY104D-MMAE antibody-drug conjugate (antibody, human IgG1, kappa, MMAE conjugated as described in Example 18 (maleimidocaproyl-vcPAB linker on reduced disulfide cysteines)) heavy: not shown light: AIQLTQSPSSLSASVGDRVTITCRASQSIGTNIHWYLQKPGQSPQLLIYYASESISGIPDRFSGSGSGTDFTLTISRLEPEDFAVYYCQQNNNWPTTFGQGTKVEIKRTVAAPSVFIFPPSDEQLKSGTASVVCLLNNFYPREAKVQWKVDNALQSGNSQESVTEQDSKDSTYSLSSTLTLSKADYEKHKVYACEVTHQGLSSPVTKSFNRGEC | – | – | – | – | – | – | – | – | – | – | – | – | – | – | – | – | IC50 for cell growth inhibition of keratinocytes at pH 7.4 [5]: ~17 nM; cell growth inhibition of HT29 cells at pH 6.8; concentration for about 50% inhibition [5]: ~22 nM; cell growth inhibition of HT29 cells at pH 6.8; maximum concentration tested [5]: ~80% |
| humanized Y104D/Q111P cetuximab mutant antibody (DP-h7) (antibody, human IgG1, kappa, Full-length IgG; also called DP-h07) heavy: not shown light: AIQLTQSPSSLSASVGDRVTITCRASQSIGTNIHWYLQKPGQSPQLLIYYASESISGIPDRFSGSGSGTDFTLTISRLEPEDFAVYYCQQNNNWPTTFGQGTKVEIKRTVAAPSVFIFPPSDEQLKSGTASVVCLLNNFYPREAKVQWKVDNALQSGNSQESVTEQDSKDSTYSLSSTLTLSKADYEKHKVYACEVTHQGLSSPVTKSFNRGEC | 3.14 | 33.6 | 3.83 | 6.91 | 8.1 | 4.86 | 3.83 | 4.15 | – | – | – | – | – | – | – | – | pH 6.0/pH 7.4 OD ratio [9]: 7.21; pH 6.0/pH 7.4 OD ratio [11]: 17.4; pH 6.0/pH 7.4 OD ratio [12]: 11.3 |
| huY104E-MMAE antibody-drug conjugate (antibody, human IgG1, kappa, MMAE conjugated as described in Example 18 (maleimidocaproyl-vcPAB linker on reduced disulfide cysteines)) heavy: not shown light: AIQLTQSPSSLSASVGDRVTITCRASQSIGTNIHWYLQKPGQSPQLLIYYASESISGIPDRFSGSGSGTDFTLTISRLEPEDFAVYYCQQNNNWPTTFGQGTKVEIKRTVAAPSVFIFPPSDEQLKSGTASVVCLLNNFYPREAKVQWKVDNALQSGNSQESVTEQDSKDSTYSLSSTLTLSKADYEKHKVYACEVTHQGLSSPVTKSFNRGEC | – | – | – | – | – | – | – | – | – | – | – | – | – | – | – | – | IC50 for cell growth inhibition of keratinocytes at pH 7.4 [5]: ~5.4 nM; cell growth inhibition of HT29 cells at pH 6.8; concentration for about 50% inhibition [5]: ~22 nM; cell growth inhibition of HT29 cells at pH 6.8; maximum concentration tested [5]: ~80% |
| humanized Y104E/Q111P anti-EGFR antibody (EP-h) (antibody, human IgG1, kappa, Full-length IgG; also called EP-h07) heavy: not shown light: AIQLTQSPSSLSASVGDRVTITCRASQSIGTNIHWYLQKPGQSPQLLIYYASESISGIPDRFSGSGSGTDFTLTISRLEPEDFAVYYCQQNNNWPTTFGQGTKVEIKRTVAAPSVFIFPPSDEQLKSGTASVVCLLNNFYPREAKVQWKVDNALQSGNSQESVTEQDSKDSTYSLSSTLTLSKADYEKHKVYACEVTHQGLSSPVTKSFNRGEC | 2.91 | 69.8 | 3.89 | 6.37 | 17.8 | 11 | 3.92 | 3.92 | 3.91 | 4.28 | 48.8 | 17.3 | 3.93 | 12.1 | 1.83 | 209 | – |
| humanized Y104E anti-EGFR antibody (E-h) (antibody, human IgG1, kappa, Full-length IgG; also called huY104E; E-h07) heavy: not shown light: AIQLTQSPSSLSASVGDRVTITCRASQSIGTNIHWYLQKPGQSPQLLIYYASESISGIPDRFSGSGSGTDFTLTISRLEPEDFAVYYCQQNNNWPTTFGQGTKVEIKRTVAAPSVFIFPPSDEQLKSGTASVVCLLNNFYPREAKVQWKVDNALQSGNSQESVTEQDSKDSTYSLSSTLTLSKADYEKHKVYACEVTHQGLSSPVTKSFNRGEC | 3.23 | 46.1 | 3.85 | 5.87 | 14.5 | 7.85 | 3.92 | 3.18 | 3.87 | 4.82 | 12.3 | 6.04 | 3.94 | 9.82 | 1.44 | 59.3 | – |
| humanized Y104D anti-EGFR antibody (D-h) (antibody, human IgG1, kappa, Full-length IgG; also called huY104D; D-h07) heavy: not shown light: AIQLTQSPSSLSASVGDRVTITCRASQSIGTNIHWYLQKPGQSPQLLIYYASESISGIPDRFSGSGSGTDFTLTISRLEPEDFAVYYCQQNNNWPTTFGQGTKVEIKRTVAAPSVFIFPPSDEQLKSGTASVVCLLNNFYPREAKVQWKVDNALQSGNSQESVTEQDSKDSTYSLSSTLTLSKADYEKHKVYACEVTHQGLSSPVTKSFNRGEC | 3.45 | 30.2 | 3.84 | 7.57 | 6.2 | 3.99 | 3.89 | 4.87 | 3.88 | 6.77 | 8.33 | 4.44 | 3.82 | 12.7 | 2.03 | 56.4 | – |
